From patent US20200199204A1

Key:
Test in all cases: cell-based or functional assay
[1] = molecular target: HIV-1 Env of QH0692.42 (HIV-1)
[2] = molecular target: HIV-1 Env of PVO.04 (HIV-1)
[3] = molecular target: HIV-1 Env of TRO.11 (HIV-1)
[4] = molecular target: HIV-1 Env of 6405.v4.c34 (HIV-1)
[5] = molecular target: HIV-1 Env of ZM53.12 (HIV-1)
[6] = molecular target: HIV-1 Env of ZM233.6 (HIV-1)
[7] = molecular target: HIV-1 Env of CNE3 (HIV-1)
[8] = molecular target: HIV-1 Env of Q259.d2.17 (HIV-1)
[9] = molecular target: HIV-1 Env of CAP210.E8 (HIV-1)
[10] = molecular target: HIV-1 Env of REJO.67 (HIV-1)
[11] = molecular target: HIV-1 Env of KER2008.12 (HIV-1)
[12] = molecular target: HIV-1 Env of THRO.18 (HIV-1)
[13] = molecular target: HIV-1 Env of DU422.01 (HIV-1)
[14] = molecular target: HIV-1 Env of 0260.v5.c36 (HIV-1)
[15] = molecular target: HIV-1 Env of TRJO.58 (HIV-1)
[16] = molecular target: HIV-1 Env of CAP256.SU (HIV-1)
[17] = molecular target: HIV-1 Env of 191821.E6.1 (HIV-1)
[18] = molecular target: HIV-1 Env of Q23.17 (HIV-1)
[19] = molecular target: HIV-1 Env of C1080.c3 (HIV-1)
[20] = molecular target: HIV-1 Env of CAP45.G3 (HIV-1)
[21] = molecular target: HIV-1 Env of RW020.2 (HIV-1)
[22] = molecular target: HIV-1 Env of DU156.12 (HIV-1)
[23] = molecular target: HIV-1 Env of CM244.ec1 (HIV-1)
[24] = molecular target: HIV-1 Env of RHPA.7 (HIV-1)
[25] = molecular target: HIV-1 Env of 3016.V5.c36 (HIV-1)
[26] = molecular target: HIV-1 Env of MB201 (HIV-1)
[27] = molecular target: HIV-1 Env of Q769.d22 (HIV-1)
[28] = molecular target: HIV-1 Env of Q168.a2 (HIV-1)
[29] = molecular target: HIV-1 Env of 6535.3 (HIV-1)
[30] = molecular target: HIV-1 Env of UG037.8 (HIV-1)
[31] = molecular target: HIV-1 Env of DU172.17 (HIV-1)
[32] = molecular target: HIV-1 Env of 96ZM651.02 (HIV-1)
[33] = molecular target: HIV-1 Env of SC422.8 (HIV-1)
[34] = molecular target: HIV-1 Env of WITO.33 (HIV-1)
[35] = molecular target: HIV-1 Env of KER2018.11 (HIV-1)
[36] = molecular target: HIV-1 Env of CAAN.A2 (HIV-1)
[37] = molecular target: HIV-1 Env of TH976.17 (HIV-1)
[38] = molecular target: HIV-1 Env of ZM135.10a (HIV-1)
[39] = molecular target: HIV-1 Env of Q842.d12 (HIV-1)
[40] = molecular target: HIV-1 Env of AC10.29 (HIV-1)
[41] = molecular target: HIV-1 Env of ZM249.1 (HIV-1)
[42] = molecular target: HIV-1 Env of CAP256.PI (HIV-1)
[43] = molecular target: HIV-1 Env of Q461.e2 (HIV-1)
[44] = molecular target: HIV-1 Env of ZM197.7 (HIV-1)
[45] = molecular target: HIV-1 Env of BG505.w6m (HIV-1)
[46] = molecular target: HIV-1 Env of MB539.2B7 (HIV-1)
[47] = molecular target: HIV-1 Env of ZM214.15 (HIV-1)
[48] = molecular target: HIV-1 Env of ZM109.4 (HIV-1)
[49] = molecular target: HIV-1 Env of CAP244.D3 (HIV-1)

**Q.** For CAP256-VRC26.20 (antibody), which IC50 [1] is on record?
**A.** > 50 µg/mL

**Q.** What about the IC50 [2] of the same substance?
**A.** > 50 µg/mL

**Q.** What about the IC50 [3] of the same substance?
**A.** > 50 µg/mL

**Q.** What about the IC50 [4] of the same substance?
**A.** > 50 µg/mL

**Q.** And the IC50 [5]?
**A.** 1.87 µg/mL

**Q.** And the IC50 [6]?
**A.** > 50 µg/mL

**Q.** What about the IC50 (neutralization, TZM-bl) [7] of the same substance?
**A.** > 50 µg/mL

**Q.** What about the IC50 [8] of the same substance?
**A.** > 50 µg/mL

**Q.** What about the IC50 [9] of the same substance?
**A.** > 50000 ng/mL

**Q.** And the IC50 [10]?
**A.** > 50 µg/mL

**Q.** And the IC50 [11]?
**A.** > 50 µg/mL

**Q.** What about the IC50 [12] of the same substance?
**A.** > 50 µg/mL

**Q.** And the IC50 [13]?
**A.** > 50 µg/mL

**Q.** What about the IC50 [14] of the same substance?
**A.** > 50 µg/mL

**Q.** And the IC50 [15]?
**A.** > 50 µg/mL

**Q.** What about the IC50 [16] of the same substance?
**A.** > 50000 ng/mL

**Q.** What about the IC50 [17] of the same substance?
**A.** > 50 µg/mL

**Q.** And the IC50 [18]?
**A.** > 50 µg/mL

**Q.** What about the IC50 [19] of the same substance?
**A.** > 50 µg/mL

**Q.** What about the IC50 [20] of the same substance?
**A.** > 50 µg/mL

**Q.** What about the IC50 [21] of the same substance?
**A.** > 50 µg/mL

**Q.** What about the IC50 [22] of the same substance?
**A.** > 50 µg/mL

**Q.** What about the IC50 [23] of the same substance?
**A.** > 50 µg/mL

**Q.** And the IC50 [24]?
**A.** > 50 µg/mL

**Q.** And the IC50 [25]?
**A.** > 50 µg/mL

**Q.** What about the IC50 [26] of the same substance?
**A.** > 50 µg/mL

**Q.** What about the IC50 [27] of the same substance?
**A.** > 50 µg/mL

**Q.** And the IC50 [28]?
**A.** > 50 µg/mL

**Q.** What about the IC50 [29] of the same substance?
**A.** > 50 µg/mL

**Q.** And the IC50 [30]?
**A.** > 50 µg/mL

**Q.** And the IC50 [31]?
**A.** > 50 µg/mL

**Q.** And the IC50 [32]?
**A.** > 50 µg/mL

**Q.** And the IC50 [33]?
**A.** > 50 µg/mL

**Q.** What about the IC50 [34] of the same substance?
**A.** > 50 µg/mL

**Q.** What about the IC50 [35] of the same substance?
**A.** > 50 µg/mL

**Q.** What about the IC50 [36] of the same substance?
**A.** > 50 µg/mL

**Q.** What about the IC50 (neutralization, TZM-bl) [37] of the same substance?
**A.** > 50 µg/mL

**Q.** And the IC50 [38]?
**A.** > 50 µg/mL

**Q.** What about the IC50 [39] of the same substance?
**A.** > 50 µg/mL

**Q.** And the IC50 [40]?
**A.** > 50 µg/mL

**Q.** What about the IC50 [41] of the same substance?
**A.** > 50 µg/mL

**Q.** What about the IC50 [42] of the same substance?
**A.** > 50 µg/mL

**Q.** What about the IC50 [43] of the same substance?
**A.** > 50 µg/mL

**Q.** And the IC50 [44]?
**A.** > 50 µg/mL

**Q.** And the IC50 [45]?
**A.** > 50 µg/mL

**Q.** And the IC50 [46]?
**A.** > 50 µg/mL

**Q.** What about the IC50 [47] of the same substance?
**A.** > 50 µg/mL

**Q.** And the IC50 [48]?
**A.** > 50 µg/mL

**Q.** What about the IC50 [49] of the same substance?
**A.** > 50 µg/mL

**Q.** What does the source list for CAP256-VRC26.21 (antibody)?
**A.** IC50 [1]: > 50 µg/mL; IC50 [2]: > 50 µg/mL; IC50 [3]: > 50 µg/mL; IC50 [4]: > 50 µg/mL; IC50 [5]: 0.003 µg/mL; IC50 [6]: 26.5 µg/mL; IC50 (neutralization, TZM-bl) [7]: > 50 µg/mL; IC50 [8]: 25.4 µg/mL; IC50 [9]: 5 ng/mL; IC50 [10]: > 50 µg/mL; IC50 [11]: > 50 µg/mL; IC50 [12]: > 50 µg/mL; IC50 [13]: 1.1 µg/mL; IC50 [14]: > 50 µg/mL; IC50 [15]: > 50 µg/mL; IC50 [16]: 2 ng/mL; IC50 [17]: > 50 µg/mL; IC50 [18]: > 50 µg/mL; IC50 [19]: > 50 µg/mL; IC50 [20]: > 50 µg/mL; IC50 [21]: > 50 µg/mL; IC50 [22]: > 50 µg/mL; IC50 [23]: > 50 µg/mL; IC50 [24]: > 50 µg/mL; IC50 [25]: > 50 µg/mL; IC50 [26]: > 50 µg/mL; IC50 [27]: > 50 µg/mL; IC50 [28]: > 50 µg/mL; IC50 [29]: > 50 µg/mL; IC50 [30]: > 50 µg/mL; IC50 [31]: > 50 µg/mL; IC50 [32]: > 50 µg/mL; IC50 [33]: > 50 µg/mL; IC50 [34]: > 50 µg/mL; IC50 [35]: 0.06 µg/mL; IC50 [36]: > 50 µg/mL; IC50 (neutralization, TZM-bl) [37]: > 50 µg/mL; IC50 [38]: > 50 µg/mL; IC50 [39]: > 50 µg/mL; IC50 [40]: > 50 µg/mL; IC50 [41]: > 50 µg/mL; IC50 [42]: > 50 µg/mL; IC50 [43]: > 50 µg/mL; IC50 [44]: > 50 µg/mL; IC50 [45]: > 50 µg/mL; IC50 [46]: > 50 µg/mL; IC50 [47]: > 50 µg/mL; IC50 [48]: > 50 µg/mL; IC50 [49]: > 50 µg/mL
